B1: CDC34 (parent)
chain: GGYFKARLKFPIDYPYSPPAFRFL

Variants of: B1
Assay: protein stability index of a GFP-peptide fusion (GPS, HEK-293T) (PSI 1-6); higher = more stable
Settings: c terminus: a fixed tail appended
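Further: lentivirally expressed fusions sorted by FACS into six bins by GFP to DsRed ratio, PSI derived from sequencing read proportions per bin multiplied by bin number.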

Variant | protein stability index
GGYFKARLKEPIDYPYSPPAFRFL | 2.66
GGYFKARLKNPIDYPYSPPAFRFL | 3.08
GGYFKARLKQPIDYPYSPPAFRFL | 1.76
GGYFKARLKRPIDYPYSPPAFRFL | 2.94
GGYFKARLKIPIDYPYSPPAFRFL | 2.44
GGYFKARLKCPIDYPYSPPAFRFL | 2.89
GGYFKARLKSPIDYPYSPPAFRFL | 3.88
GGYFKARLKHPIDYPYSPPAFRFL | 3.49
GGYFKARLKGPIDYPYSPPAFRFL | 2.75
GGYFKARLKWPIDYPYSPPAFRFL | 3.49
GGYFKARLKYPIDYPYSPPAFRFL | 2.87
GGYFKARLKVPIDYPYSPPAFRFL | 2.97
GGYFKARLKMPIDYPYSPPAFRFL | 2.53
GGYFKARLKDPIDYPYSPPAFRFL | 3.29
GGYFKARLKFPEDYPYSPPAFRFL | 2.83
GGYFKARLKFPCDYPYSPPAFRFL | 2.64
GGYFKARLKFPFDYPYSPPAFRFL | 3.1
GGYFKARLKFPGDYPYSPPAFRFL | 3.83
GGYFKARLKFPLDYPYSPPAFRFL | 2.49
GGYFKARLKFPKDYPYSPPAFRFL | 2.61
GNYFKARLKFPIDYPYSPPAFRFL | 2.68
GKYFKARLKFPIDYPYSPPAFRFL | 1.9
GCYFKARLKFPIDYPYSPPAFRFL | 2.22
GDYFKARLKFPIDYPYSPPAFRFL | 2.29

Variant | protein stability index
GTYFKARLKFPIDYPYSPPAFRFL | 3.26
GSYFKARLKFPIDYPYSPPAFRFL | 2.18
GIYFKARLKFPIDYPYSPPAFRFL | 3.05
GMYFKARLKFPIDYPYSPPAFRFL | 2.92
GEYFKARLKFPIDYPYSPPAFRFL | 1.94
GQYFKARLKFPIDYPYSPPAFRFL | 2.77
GLYFKARLKFPIDYPYSPPAFRFL | 2.2
GWYFKARLKFPIDYPYSPPAFRFL | 2.23
GFYFKARLKFPIDYPYSPPAFRFL | 2.03
GPYFKARLKFPIDYPYSPPAFRFL | 3.31
GVYFKARLKFPIDYPYSPPAFRFL | 3.03
GAYFKARLKFPIDYPYSPPAFRFL | 3.13
GHYFKARLKFPIDYPYSPPAFRFL | 3.54
GYYFKARLKFPIDYPYSPPAFRFL | 3
GGYTKARLKFPIDYPYSPPAFRFL | 1.94
GGYPKARLKFPIDYPYSPPAFRFL | 1.54
GGYCKARLKFPIDYPYSPPAFRFL | 3.82
GGYQKARLKFPIDYPYSPPAFRFL | 1.75
GGYMKARLKFPIDYPYSPPAFRFL | 2.51
GGYHKARLKFPIDYPYSPPAFRFL | 1.96
GGYEKARLKFPIDYPYSPPAFRFL | 2.79
GGYAKARLKFPIDYPYSPPAFRFL | 2.97
GGYSKARLKFPIDYPYSPPAFRFL | 3.07
GGYRKARLKFPIDYPYSPPAFRFL | 2.76

Variant | protein stability index
GGYWKARLKFPIDYPYSPPAFRFL | 1.73
GGYYKARLKFPIDYPYSPPAFRFL | 2.38
GGYKKARLKFPIDYPYSPPAFRFL | 3.11
GGYVKARLKFPIDYPYSPPAFRFL | 3.17
GGYDKARLKFPIDYPYSPPAFRFL | 2
GGYNKARLKFPIDYPYSPPAFRFL | 2.72
GGYLKARLKFPIDYPYSPPAFRFL | 3.57
GGYFKARLRFPIDYPYSPPAFRFL | 3.6
GGYFKARLLFPIDYPYSPPAFRFL | 3.67
GGYFKARLPFPIDYPYSPPAFRFL | 2.57
GGYFKARLTFPIDYPYSPPAFRFL | 2.11
GGYFKARLNFPIDYPYSPPAFRFL | 2.39
GGYFKARLHFPIDYPYSPPAFRFL | 3.05
GGYFKARLAFPIDYPYSPPAFRFL | 2.74
GGYFKARLIFPIDYPYSPPAFRFL | 3.15
GGYFKARLFFPIDYPYSPPAFRFL | 3.11
GGYFKARLWFPIDYPYSPPAFRFL | 2.66
GGYFKARLMFPIDYPYSPPAFRFL | 1.82
GGYFKARLYFPIDYPYSPPAFRFL | 3.41
GGYFKARLQFPIDYPYSPPAFRFL | 2.55
GGYFKARLSFPIDYPYSPPAFRFL | 3.19
GGYFKARLEFPIDYPYSPPAFRFL | 3.56
GGYFKARLDFPIDYPYSPPAFRFL | 2.43
GGYFKARLGFPIDYPYSPPAFRFL | 2.29

Variant | protein stability index
GGRFKARLKFPIDYPYSPPAFRFL | 3.15
GGKFKARLKFPIDYPYSPPAFRFL | 3.54
GGLFKARLKFPIDYPYSPPAFRFL | 2.32
GGEFKARLKFPIDYPYSPPAFRFL | 1.29
GGSFKARLKFPIDYPYSPPAFRFL | 1.54
GGMFKARLKFPIDYPYSPPAFRFL | 2.46
GGCFKARLKFPIDYPYSPPAFRFL | 3.72
GGNFKARLKFPIDYPYSPPAFRFL | 2.44
GGWFKARLKFPIDYPYSPPAFRFL | 2.33
GGPFKARLKFPIDYPYSPPAFRFL | 3.03
GGIFKARLKFPIDYPYSPPAFRFL | 2.63
GGQFKARLKFPIDYPYSPPAFRFL | 3.35
GGFFKARLKFPIDYPYSPPAFRFL | 1.77
GGAFKARLKFPIDYPYSPPAFRFL | 2.68
GGGFKARLKFPIDYPYSPPAFRFL | 1.63
GGVFKARLKFPIDYPYSPPAFRFL | 2.61
GGHFKARLKFPIDYPYSPPAFRFL | 3.02
GGTFKARLKFPIDYPYSPPAFRFL | 2.39
FGYFKARLKFPIDYPYSPPAFRFL | 2.55
IGYFKARLKFPIDYPYSPPAFRFL | 3.18
DGYFKARLKFPIDYPYSPPAFRFL | 1.94
SGYFKARLKFPIDYPYSPPAFRFL | 3.14
WGYFKARLKFPIDYPYSPPAFRFL | 2.88
CGYFKARLKFPIDYPYSPPAFRFL | 2.8

Variant | protein stability index
PGYFKARLKFPIDYPYSPPAFRFL | 2.61
AGYFKARLKFPIDYPYSPPAFRFL | 2.86
YGYFKARLKFPIDYPYSPPAFRFL | 2.68
QGYFKARLKFPIDYPYSPPAFRFL | 2.39
MGYFKARLKFPIDYPYSPPAFRFL | 3.53
RGYFKARLKFPIDYPYSPPAFRFL | 2.45
NGYFKARLKFPIDYPYSPPAFRFL | 3.03
HGYFKARLKFPIDYPYSPPAFRFL | 2.91
KGYFKARLKFPIDYPYSPPAFRFL | 2.88
EGYFKARLKFPIDYPYSPPAFRFL | 1.58
TGYFKARLKFPIDYPYSPPAFRFL | 3.19
VGYFKARLKFPIDYPYSPPAFRFL | 2.45
GGYFAARLKFPIDYPYSPPAFRFL | 2.24
GGYFQARLKFPIDYPYSPPAFRFL | 3.03
GGYFVARLKFPIDYPYSPPAFRFL | 3.61
GGYFDARLKFPIDYPYSPPAFRFL | 2.63
GGYFSARLKFPIDYPYSPPAFRFL | 3.33
GGYFRARLKFPIDYPYSPPAFRFL | 2.71
GGYFHARLKFPIDYPYSPPAFRFL | 2.61
GGYFFARLKFPIDYPYSPPAFRFL | 3.5
GGYFEARLKFPIDYPYSPPAFRFL | 2.79
GGYFIARLKFPIDYPYSPPAFRFL | 2.76
GGYFCARLKFPIDYPYSPPAFRFL | 2.85
GGYFPARLKFPIDYPYSPPAFRFL | 1.98

Variant | protein stability index
GGYFTARLKFPIDYPYSPPAFRFL | 2.69
GGYFMARLKFPIDYPYSPPAFRFL | 3.16
GGYFNARLKFPIDYPYSPPAFRFL | 2.89
GGYFKARLKFIIDYPYSPPAFRFL | 2.84
GGYFKARLKFMIDYPYSPPAFRFL | 3.98
GGYFKARLKFSIDYPYSPPAFRFL | 3.37
GGYFKARLKFWIDYPYSPPAFRFL | 2.87
GGYFKARLKFTIDYPYSPPAFRFL | 2.28
GGYFKARLKFKIDYPYSPPAFRFL | 2.13
GGYFKARLKFYIDYPYSPPAFRFL | 3.2
GGYFKARLKFGIDYPYSPPAFRFL | 2.07
GGYFKARLKFRIDYPYSPPAFRFL | 2.99
GGYFKARLKFEIDYPYSPPAFRFL | 2.75
GGYFKARLKFCIDYPYSPPAFRFL | 3.95
GGYFKARLKFDIDYPYSPPAFRFL | 2.06
GGYFKARLKFLIDYPYSPPAFRFL | 4.07
GGYFKARLKFAIDYPYSPPAFRFL | 2.77
GGYFKARLKFNIDYPYSPPAFRFL | 3.45
GGYFKARKKFPIDYPYSPPAFRFL | 2.48
GGYFKARRKFPIDYPYSPPAFRFL | 1.25
GGYFKARWKFPIDYPYSPPAFRFL | 2.65
GGYFKARMKFPIDYPYSPPAFRFL | 3.8
GGYFKARAKFPIDYPYSPPAFRFL | 2.66
GGYFKARGKFPIDYPYSPPAFRFL | 3.75

Variant | protein stability index
GGYFKARSKFPIDYPYSPPAFRFL | 2.89
GGYFKARCKFPIDYPYSPPAFRFL | 2.65
GGYFKARHKFPIDYPYSPPAFRFL | 2.54
GGYFKARFKFPIDYPYSPPAFRFL | 3.29
GGYFKARQKFPIDYPYSPPAFRFL | 2.35
GGYFKARIKFPIDYPYSPPAFRFL | 3.42
GGYFKARVKFPIDYPYSPPAFRFL | 2.53
GGYFKAREKFPIDYPYSPPAFRFL | 2.3
GGYFKARYKFPIDYPYSPPAFRFL | 1.53
GGYFKARDKFPIDYPYSPPAFRFL | 2.24
GGYFKARPKFPIDYPYSPPAFRFL | 2.19
GGYFKSRLKFPIDYPYSPPAFRFL | 2.47
GGYFKMRLKFPIDYPYSPPAFRFL | 3.74
GGYFKRRLKFPIDYPYSPPAFRFL | 3.77
GGYFKDRLKFPIDYPYSPPAFRFL | 2.1
GGYFKHRLKFPIDYPYSPPAFRFL | 3.08
GGYFKKRLKFPIDYPYSPPAFRFL | 3.08
GGYFKTRLKFPIDYPYSPPAFRFL | 2.76
GGYFKVRLKFPIDYPYSPPAFRFL | 2.15
GGYFKFRLKFPIDYPYSPPAFRFL | 3.63
GGYFKYRLKFPIDYPYSPPAFRFL | 3.56
GGYFKWRLKFPIDYPYSPPAFRFL | 3.16
GGYFKGRLKFPIDYPYSPPAFRFL | 3.12
GGYFKLRLKFPIDYPYSPPAFRFL | 2.36

Variant | protein stability index
GGYFKIRLKFPIDYPYSPPAFRFL | 1.94
GGYFKERLKFPIDYPYSPPAFRFL | 2.33
GGYFKPRLKFPIDYPYSPPAFRFL | 2.13
GGYFKQRLKFPIDYPYSPPAFRFL | 1.71
GGYFKNRLKFPIDYPYSPPAFRFL | 3.51
GGYFKANLKFPIDYPYSPPAFRFL | 2.57
GGYFKAVLKFPIDYPYSPPAFRFL | 3.25
GGYFKAILKFPIDYPYSPPAFRFL | 2.78
GGYFKAALKFPIDYPYSPPAFRFL | 1.8
GGYFKAKLKFPIDYPYSPPAFRFL | 3.83
GGYFKAWLKFPIDYPYSPPAFRFL | 3.18
GGYFKACLKFPIDYPYSPPAFRFL | 2.9
GGYFKASLKFPIDYPYSPPAFRFL | 2.3
GGYFKAMLKFPIDYPYSPPAFRFL | 2.51
GGYFKAELKFPIDYPYSPPAFRFL | 2.77
GGYFKAHLKFPIDYPYSPPAFRFL | 3.7
GGYFKAGLKFPIDYPYSPPAFRFL | 2.45
GGYFKALLKFPIDYPYSPPAFRFL | 2.38
GGYFKADLKFPIDYPYSPPAFRFL | 1.96
GGYFKAQLKFPIDYPYSPPAFRFL | 1.72

Source: the supplement of paper PMC10567573
